The text below walks through data of patent US20140294898A1.

Positions of bridges follow the written chain, without caps; N, C: chain ends. Non-standard residues stand in square brackets, D forms with d. Phe(F5) = N[C@@H](Cc1c(F)c(F)c(F)c(F)c1F)C(=O)O; NMeF = CN[C@@H](Cc1ccccc1)C(=O)O; NMeNle = CCCC[C@H](NC)C(=O)O; Sar = CNCC(=O)O

Assay [1] addresses hPDL1(19-239)-TVMV-His (human) (UniProt Q9NZQ7). Briefly: HTRF competition of PD-1-Ig binding to PD-L1-His; cluster 3 = IC50 0.03045 to >10 uM or not done.
Assay [2] has as its target human PD-L1 (human) (UniProt Q9NZQ7). In words: cell binding assay (CBA), PE-labeled PD-1-Ig on cells over-expressing human PD-L1; cluster 3 = IC50 0.07431 to >10 uM or not done.

Sequence of human PD-L1 (human) (Q9NZQ7 19-290): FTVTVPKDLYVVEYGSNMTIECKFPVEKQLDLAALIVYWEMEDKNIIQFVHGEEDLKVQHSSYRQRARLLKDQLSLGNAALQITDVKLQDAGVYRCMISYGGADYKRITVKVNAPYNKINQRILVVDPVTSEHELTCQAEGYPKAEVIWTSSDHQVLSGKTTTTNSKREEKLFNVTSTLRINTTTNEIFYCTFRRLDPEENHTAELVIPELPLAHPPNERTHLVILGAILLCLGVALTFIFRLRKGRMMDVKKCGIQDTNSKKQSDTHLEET
Sequence of hPDL1(19-239)-TVMV-His (human) (Q9NZQ7 other isoform, or with tags, fused parts or gaps limits assumed): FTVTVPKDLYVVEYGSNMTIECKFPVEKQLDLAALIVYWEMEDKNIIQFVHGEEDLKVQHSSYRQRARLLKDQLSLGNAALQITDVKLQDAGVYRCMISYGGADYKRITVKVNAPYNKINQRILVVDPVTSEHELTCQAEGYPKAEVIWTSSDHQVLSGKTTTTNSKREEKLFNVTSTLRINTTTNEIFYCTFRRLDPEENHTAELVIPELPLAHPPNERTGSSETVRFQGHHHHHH

B1: Example 3078 (peptide)
peptide: {CH2CO}-[Phe(F5)][NMeF][NMeNle][Sar]DV[NMeF]Y[Sar]WYLCG-NH2
modifications: thioether N-13
SMILES: CCCC[C@H]1C(=O)N(C)CC(=O)N[C@@H](CC(=O)O)C(=O)N[C@@H](C(C)C)C(=O)N(C)[C@@H](Cc2ccccc2)C(=O)N[C@@H](Cc2ccc(O)cc2)C(=O)N(C)CC(=O)N[C@@H](Cc2c[nH]c3ccccc23)C(=O)N[C@@H](Cc2ccc(O)cc2)C(=O)N[C@@H](CC(C)C)C(=O)N[C@H](C(=O)NCC(N)=O)CSCC(=O)N[C@@H](Cc2c(F)c(F)c(F)c(F)c2F)C(=O)N(C)[C@@H](Cc2ccccc2)C(=O)N1C
Consider B1, for which the HTRF IC50 cluster in assay [1] was found to be 3 cluster. In addition, in assay [2], the CBA IC50 cluster turned out to be 3 cluster.
